Test results taken from patent US20100120171A1.

Key:
[1] = target: recombinant fragment of human VE-cadherin extracellular region, CAD 1-4 fragment (Asp48-Glu478, preceded by Met), SEQ ID NO: 4 (human) (UniProt P33151); assay: sandwich ELISA, BV9 capture, rabbit polyclonal detection; CAD1-4 at 2.5 ng/mL; second replicate
[2] = target: recombinant fragment of human VE-cadherin extracellular region, CAD 1-4 fragment (Asp48-Glu478, preceded by Met), SEQ ID NO: 4 (human) (UniProt P33151); assay: sandwich ELISA, BV9 capture, rabbit polyclonal detection; CAD1-4 at 5 ng/mL; first replicate
[3] = target: recombinant fragment of human VE-cadherin extracellular region, CAD 1-4 fragment (Asp48-Glu478, preceded by Met), SEQ ID NO: 4 (human) (UniProt P33151); assay: sandwich ELISA, BV9 capture, rabbit polyclonal detection; CAD1-4 at 2.5 ng/mL; mean OD minus OD at 0 ng/mL
[4] = target: recombinant fragment of human VE-cadherin extracellular region, CAD 1-4 fragment (Asp48-Glu478, preceded by Met), SEQ ID NO: 4 (human) (UniProt P33151); assay: sandwich ELISA, BV9 capture, rabbit polyclonal detection; CAD1-4 at 10 ng/mL; mean OD minus OD at 0 ng/mL
[5] = target: recombinant fragment of human VE-cadherin extracellular region, CAD 1-4 fragment (Asp48-Glu478, preceded by Met), SEQ ID NO: 4 (human) (UniProt P33151); assay: sandwich ELISA, BV9 capture, rabbit polyclonal detection; CAD1-4 at 5 ng/mL; mean OD minus OD at 0 ng/mL
[6] = target: recombinant fragment of human VE-cadherin extracellular region, CAD 1-4 fragment (Asp48-Glu478, preceded by Met), SEQ ID NO: 4 (human) (UniProt P33151); assay: sandwich ELISA, BV9 capture, rabbit polyclonal detection; CAD1-4 at 5 ng/mL; second replicate
[7] = target: recombinant fragment of human VE-cadherin extracellular region, CAD 1-4 fragment (Asp48-Glu478, preceded by Met), SEQ ID NO: 4 (human) (UniProt P33151); assay: sandwich ELISA, BV9 capture, rabbit polyclonal detection; CAD1-4 at 1.25 ng/mL; first replicate
[8] = target: recombinant fragment of human VE-cadherin extracellular region, CAD 1-4 fragment (Asp48-Glu478, preceded by Met), SEQ ID NO: 4 (human) (UniProt P33151); assay: sandwich ELISA, BV9 capture, rabbit polyclonal detection; CAD1-4 at 10 ng/mL; mean OD minus OD at 0 ng/mL; remark: listed apart in the source
[9] = target: recombinant fragment of human VE-cadherin extracellular region, CAD 1-4 fragment (Asp48-Glu478, preceded by Met), SEQ ID NO: 4 (human) (UniProt P33151); assay: sandwich ELISA, BV9 capture, rabbit polyclonal detection; CAD1-4 at 0.63 ng/mL; mean OD minus OD at 0 ng/mL
[10] = target: recombinant fragment of human VE-cadherin extracellular region, CAD 1-4 fragment (Asp48-Glu478, preceded by Met), SEQ ID NO: 4 (human) (UniProt P33151); assay: sandwich ELISA, BV9 capture, rabbit polyclonal detection; CAD1-4 at 5 ng/mL
[11] = target: recombinant fragment of human VE-cadherin extracellular region, CAD 1-4 fragment (Asp48-Glu478, preceded by Met), SEQ ID NO: 4 (human) (UniProt P33151); assay: sandwich ELISA, BV9 capture, rabbit polyclonal detection; CAD1-4 at 10 ng/mL; first replicate
[12] = target: recombinant fragment of human VE-cadherin extracellular region, CAD 1-4 fragment (Asp48-Glu478, preceded by Met), SEQ ID NO: 4 (human) (UniProt P33151); assay: sandwich ELISA, BV9 capture, rabbit polyclonal detection; CAD1-4 at 2.5 ng/mL
[13] = target: recombinant fragment of human VE-cadherin extracellular region, CAD 1-4 fragment (Asp48-Glu478, preceded by Met), SEQ ID NO: 4 (human) (UniProt P33151); assay: sandwich ELISA, BV9 capture, rabbit polyclonal detection; CAD1-4 at 2.5 ng/mL; first replicate
[14] = target: recombinant fragment of human VE-cadherin extracellular region, CAD 1-4 fragment (Asp48-Glu478, preceded by Met), SEQ ID NO: 4 (human) (UniProt P33151); assay: sandwich ELISA, BV9 capture, rabbit polyclonal detection; CAD1-4 at 10 ng/mL
[15] = target: recombinant fragment of human VE-cadherin extracellular region, CAD 1-4 fragment (Asp48-Glu478, preceded by Met), SEQ ID NO: 4 (human) (UniProt P33151); assay: as above; remark: listed apart in the source
[16] = target: recombinant fragment of human VE-cadherin extracellular region, CAD 1-4 fragment (Asp48-Glu478, preceded by Met), SEQ ID NO: 4 (human) (UniProt P33151); assay: SDS-PAGE and western blot of the purified fragment with BV9
[17] = target: recombinant fragment of human VE-cadherin extracellular region, CAD 1-4 fragment (Asp48-Glu478, preceded by Met), SEQ ID NO: 4 (human) (UniProt P33151); assay: sandwich ELISA, BV9 capture, rabbit polyclonal detection; CAD1-4 at 2.5 ng/mL; mean OD minus OD at 0 ng/mL; remark: listed apart in the source
[18] = target: recombinant fragment of human VE-cadherin extracellular region, CAD 1-4 fragment (Asp48-Glu478, preceded by Met), SEQ ID NO: 4 (human) (UniProt P33151); assay: sandwich ELISA, BV9 capture, rabbit polyclonal detection; CAD1-4 at 0.63 ng/mL; first replicate
[19] = target: circulating (soluble) human VE-cadherin, 90 kDa form, in human serum or plasma (human) (UniProt P33151); assay: western blot of healthy human serum diluted 1/500, BV9 tested from 0.02 to 1 µg/mL
[20] = target: recombinant fragment of human VE-cadherin extracellular region, CAD 1-4 fragment (Asp48-Glu478, preceded by Met), SEQ ID NO: 4 (human) (UniProt P33151); assay: sandwich ELISA, BV9 capture, rabbit polyclonal detection; CAD1-4 at 1.25 ng/mL; mean OD minus OD at 0 ng/mL

OD [1]: 1.09 OD
OD [2]: 1.34 OD
Corr. OD [3]: 0.288 OD
Corr. OD [4]: 1.06 OD
Corr. OD [5]: 0.512 OD
OD [6]: 1.45 OD
OD [7]: 1.07 OD
Corr. OD [8]: 1.06 OD
Corr. OD [9]: 0.087 OD
mean OD [10]: 1.4 OD
OD [11]: 1.9 OD
OD1 [12]: 0.988 OD
OD2 [12]: 0.985 OD
mean OD [12]: 0.987 OD
OD [13]: 1.26 OD
mean OD [14]: 1.95 OD
OD1 [15]: 1.76 OD
OD2 [15]: 1.76 OD
mean OD [15]: 1.76 OD
lowest detectable quantity [16]: 1 ng
Corr. OD [17]: 0.282 OD
OD [18]: 0.975 OD
lowest mAb concentration giving detection [19]: 0.02 µg/mL
mAb concentration at signal plateau [19]: 0.1 to 1 µg/mL
Corr. OD [20]: 0.116 OD
Substance: anti-VEcadherin mouse mAb, clone BV9 (Abcam, product datasheet ab7047) (antibody)
